Values quoted from earlier work, collected in patent US20220280635A1, “PARTICLES FOR STIMULATING AN IMMUNE RESPONSE AGAINST VIRAL INFECTIONS” (FINNCURE OY, priority 2020, published 2022).

Biological target: ACE2 (Homo sapiens, UniProt Q9BYF1)
Settings: simulation, ref [8]

Sequence of ACE2 (Q9BYF1 18-805): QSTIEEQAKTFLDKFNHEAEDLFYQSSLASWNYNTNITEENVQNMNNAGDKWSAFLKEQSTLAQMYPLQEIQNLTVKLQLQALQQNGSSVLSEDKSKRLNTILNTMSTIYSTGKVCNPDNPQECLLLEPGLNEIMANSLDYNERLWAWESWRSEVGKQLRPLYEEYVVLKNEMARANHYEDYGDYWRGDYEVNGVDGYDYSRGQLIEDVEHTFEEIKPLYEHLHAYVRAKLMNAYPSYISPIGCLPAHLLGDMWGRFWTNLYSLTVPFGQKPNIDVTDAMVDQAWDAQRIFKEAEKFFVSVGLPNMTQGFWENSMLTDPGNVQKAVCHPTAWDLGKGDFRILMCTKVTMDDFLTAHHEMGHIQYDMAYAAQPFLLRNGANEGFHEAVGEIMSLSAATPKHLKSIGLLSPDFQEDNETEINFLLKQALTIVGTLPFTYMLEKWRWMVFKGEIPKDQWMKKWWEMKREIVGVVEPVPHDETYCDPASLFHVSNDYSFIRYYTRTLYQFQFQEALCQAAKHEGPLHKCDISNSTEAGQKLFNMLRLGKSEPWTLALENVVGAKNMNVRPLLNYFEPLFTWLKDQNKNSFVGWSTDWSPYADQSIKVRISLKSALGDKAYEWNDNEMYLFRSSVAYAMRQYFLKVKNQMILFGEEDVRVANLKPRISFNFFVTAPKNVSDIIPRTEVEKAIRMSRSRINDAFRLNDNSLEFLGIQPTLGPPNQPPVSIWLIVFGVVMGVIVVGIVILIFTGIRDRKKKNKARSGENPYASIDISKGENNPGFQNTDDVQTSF

Row | Substance | binding affinity towards the ACE2 receptor compared with YKYRYL
1 | YKYNYL: alternative synthetic hexapeptide variant (Potential alternative synthetic hexapeptide variant) | even stronger binding affinity
2 | YKYNYI: alternative synthetic hexapeptide variant (Potential alternative synthetic hexapeptide variant) | even stronger binding affinity
